Consider one molecule from publication PMC8319299 (2020).

In this test the target is EED (amino acids 40-441) (human, UniProt O75530-1 40-441). Kind of test: FP.

Where no end group is shown, it is not given here. [ ]: non-standard residue; d: D form. Lys(Me3) = C[N+](C)(C)CCCC[C@H](N)C(=O)O

Chain of EED (amino acids 40-441) (O75530 40-441): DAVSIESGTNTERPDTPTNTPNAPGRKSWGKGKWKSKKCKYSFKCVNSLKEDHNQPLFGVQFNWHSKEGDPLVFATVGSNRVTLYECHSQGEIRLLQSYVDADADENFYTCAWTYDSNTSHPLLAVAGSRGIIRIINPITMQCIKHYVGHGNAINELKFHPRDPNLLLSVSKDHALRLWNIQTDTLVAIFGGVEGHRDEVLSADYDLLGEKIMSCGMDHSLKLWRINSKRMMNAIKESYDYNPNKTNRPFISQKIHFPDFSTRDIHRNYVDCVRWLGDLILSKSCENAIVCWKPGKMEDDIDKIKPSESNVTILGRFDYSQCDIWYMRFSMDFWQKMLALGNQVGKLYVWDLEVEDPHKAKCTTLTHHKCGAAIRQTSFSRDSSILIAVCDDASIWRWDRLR

B1: PALI1-K1241me3 peptide with the F1242A mutation (peptide)
chain: LK[Lys(Me3)]APG
Regarding B1, binding was characterised by a dissociation constant (Kd) of 223 µM.
